The labels stand for the following.
T1: human CD19 (human, UniProt P15391 20-556)
T1 construct: CD19 as expressed on Raji, NALM-6 and SU-DHL-6 cells; also called CD19 antigen; B-cell surface antigen B4
T1 sequence: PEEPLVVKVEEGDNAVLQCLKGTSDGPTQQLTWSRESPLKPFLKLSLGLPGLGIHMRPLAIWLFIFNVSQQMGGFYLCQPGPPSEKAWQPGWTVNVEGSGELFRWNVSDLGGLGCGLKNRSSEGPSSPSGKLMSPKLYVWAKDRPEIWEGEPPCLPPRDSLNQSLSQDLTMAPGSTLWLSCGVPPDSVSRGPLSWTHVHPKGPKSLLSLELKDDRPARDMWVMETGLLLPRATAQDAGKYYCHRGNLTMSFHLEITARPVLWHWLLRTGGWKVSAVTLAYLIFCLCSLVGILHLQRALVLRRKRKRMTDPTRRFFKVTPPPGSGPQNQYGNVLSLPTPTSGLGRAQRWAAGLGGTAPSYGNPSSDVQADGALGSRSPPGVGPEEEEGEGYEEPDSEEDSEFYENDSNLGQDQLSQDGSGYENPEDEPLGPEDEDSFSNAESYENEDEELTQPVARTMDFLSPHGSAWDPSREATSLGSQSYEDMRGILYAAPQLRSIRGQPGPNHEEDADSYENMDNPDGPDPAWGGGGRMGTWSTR

B1: VH16 R94K/VL43 V3Q/T7S/Y32F/P44I/N92A (antibody, human IgG1, kappa, V domains shown)
VH: QVQLVQSGGGVVQPGRSLRLSCAASGVSLPDYGVSWVRQAPGKGLEWVAVIWGSETTYYNSALKSRFTISRDNSKNTLYLQMNSLRAEDTAVYYCAKHYYYGGSYAMDYWGQGTLVTVSS
VL: DIQMTQSPSSLSASVGDRVTITCRASQDISKFLNWYQQKPGKAIKLLIYHTSRLHSGVPSRFSGSGSGTDFTLTISSLQPEDFATYYCQQGATLPYTFGPGTKVDIKR
notes: human IgG1/kappa
B2: VH16-R71K/VL43-P44V (antibody, human IgG1, name in Kabat numbering, V domains shown)
VH: QVQLVQSGGGVVQPGRSLRLSCAASGVSLPDYGVSWVRQAPGKGLEWVAVIWGSETTYYNSALKSRFTISKDNSKNTLYLQMNSLRAEDTAVYYCARHYYYGGSYAMDYWGQGTLVTVSS
VL: DIVMTQTPSSLSASVGDRVTITCRASQDISKYLNWYQQKPGKAVKLLIYHTSRLHSGVPSRFSGSGSGTDFTLTISSLQPEDFATYYCQQGNTLPYTFGPGTKVDIKR
notes: substitutions in Kabat numbering
B3: VH16 R94K Y32F VL43 (antibody, human IgG1, name in Kabat numbering, V domains shown)
VH: QVQLVQSGGGVVQPGRSLRLSCAASGVSLPDFGVSWVRQAPGKGLEWVAVIWGSETTYYNSALKSRFTISRDNSKNTLYLQMNSLRAEDTAVYYCAKHYYYGGSYAMDYWGQGTLVTVSS
VL: DIVMTQTPSSLSASVGDRVTITCRASQDISKYLNWYQQKPGKAPKLLIYHTSRLHSGVPSRFSGSGSGTDFTLTISSLQPEDFATYYCQQGNTLPYTFGPGTKVDIKR
notes: as for B2
B4: VH16-R71K/VL43 (antibody, human IgG1, name in Kabat numbering, V domains shown)
VH: QVQLVQSGGGVVQPGRSLRLSCAASGVSLPDYGVSWVRQAPGKGLEWVAVIWGSETTYYNSALKSRFTISKDNSKNTLYLQMNSLRAEDTAVYYCARHYYYGGSYAMDYWGQGTLVTVSS
VL: DIVMTQTPSSLSASVGDRVTITCRASQDISKYLNWYQQKPGKAPKLLIYHTSRLHSGVPSRFSGSGSGTDFTLTISSLQPEDFATYYCQQGNTLPYTFGPGTKVDIKR
notes: as for B2
B5: VH16-F67L/VL43-F71Y (antibody, human IgG1, name in Kabat numbering, V domains shown)
VH: QVQLVQSGGGVVQPGRSLRLSCAASGVSLPDYGVSWVRQAPGKGLEWVAVIWGSETTYYNSALKSRLTISRDNSKNTLYLQMNSLRAEDTAVYYCARHYYYGGSYAMDYWGQGTLVTVSS
VL: DIVMTQTPSSLSASVGDRVTITCRASQDISKYLNWYQQKPGKAPKLLIYHTSRLHSGVPSRFSGSGSGTDYTLTISSLQPEDFATYYCQQGNTLPYTFGPGTKVDIKR
notes: as for B2
B6: VH16-L78V/VL43 (antibody, human IgG1, name in Kabat numbering, V domains shown)
VH: QVQLVQSGGGVVQPGRSLRLSCAASGVSLPDYGVSWVRQAPGKGLEWVAVIWGSETTYYNSALKSRFTISRDNSKNTVYLQMNSLRAEDTAVYYCARHYYYGGSYAMDYWGQGTLVTVSS
VL: DIVMTQTPSSLSASVGDRVTITCRASQDISKYLNWYQQKPGKAPKLLIYHTSRLHSGVPSRFSGSGSGTDFTLTISSLQPEDFATYYCQQGNTLPYTFGPGTKVDIKR
notes: as for B2
B7: VH16 Y32F/R94K/VL43 V3Q/T7S/Y32F/N92A (antibody, human IgG1, name in Kabat numbering, V domains shown)
VH: QVQLVQSGGGVVQPGRSLRLSCAASGVSLPDFGVSWVRQAPGKGLEWVAVIWGSETTYYNSALKSRFTISRDNSKNTLYLQMNSLRAEDTAVYYCAKHYYYGGSYAMDYWGQGTLVTVSS
VL: DIQMTQSPSSLSASVGDRVTITCRASQDISKFLNWYQQKPGKAPKLLIYHTSRLHSGVPSRFSGSGSGTDFTLTISSLQPEDFATYYCQQGATLPYTFGPGTKVDIKR
notes: as for B2
B8: VH16 R94K Y98F VL43 (antibody, human IgG1, name in Kabat numbering, V domains shown)
VH: QVQLVQSGGGVVQPGRSLRLSCAASGVSLPDYGVSWVRQAPGKGLEWVAVIWGSETTYYNSALKSRFTISRDNSKNTLYLQMNSLRAEDTAVYYCAKHYYFGGSYAMDYWGQGTLVTVSS
VL: DIVMTQTPSSLSASVGDRVTITCRASQDISKYLNWYQQKPGKAPKLLIYHTSRLHSGVPSRFSGSGSGTDFTLTISSLQPEDFATYYCQQGNTLPYTFGPGTKVDIKR
notes: as for B2
B9: VH16-G42R/VL43-P44V (antibody, human IgG1, name in Kabat numbering, V domains shown)
VH: QVQLVQSGGGVVQPGRSLRLSCAASGVSLPDYGVSWVRQAPRKGLEWVAVIWGSETTYYNSALKSRFTISRDNSKNTLYLQMNSLRAEDTAVYYCARHYYYGGSYAMDYWGQGTLVTVSS
VL: DIVMTQTPSSLSASVGDRVTITCRASQDISKYLNWYQQKPGKAVKLLIYHTSRLHSGVPSRFSGSGSGTDFTLTISSLQPEDFATYYCQQGNTLPYTFGPGTKVDIKR
notes: as for B2
B10: VH16-F67L/VL43-Y87F (antibody, human IgG1, name in Kabat numbering, V domains shown)
VH: QVQLVQSGGGVVQPGRSLRLSCAASGVSLPDYGVSWVRQAPGKGLEWVAVIWGSETTYYNSALKSRLTISRDNSKNTLYLQMNSLRAEDTAVYYCARHYYYGGSYAMDYWGQGTLVTVSS
VL: DIVMTQTPSSLSASVGDRVTITCRASQDISKYLNWYQQKPGKAPKLLIYHTSRLHSGVPSRFSGSGSGTDFTLTISSLQPEDFATYFCQQGNTLPYTFGPGTKVDIKR
notes: as for B2
B11: VH16 R94K Y96F VL43 (antibody, human IgG1, name in Kabat numbering, V domains shown)
VH: QVQLVQSGGGVVQPGRSLRLSCAASGVSLPDYGVSWVRQAPGKGLEWVAVIWGSETTYYNSALKSRFTISRDNSKNTLYLQMNSLRAEDTAVYYCAKHFYYGGSYAMDYWGQGTLVTVSS
VL: DIVMTQTPSSLSASVGDRVTITCRASQDISKYLNWYQQKPGKAPKLLIYHTSRLHSGVPSRFSGSGSGTDFTLTISSLQPEDFATYYCQQGNTLPYTFGPGTKVDIKR
notes: as for B2
B12: VH16 R94K/Y97F/VL43 V3Q/T7S/N92A (antibody, human IgG1, name in Kabat numbering, V domains shown)
VH: QVQLVQSGGGVVQPGRSLRLSCAASGVSLPDYGVSWVRQAPGKGLEWVAVIWGSETTYYNSALKSRFTISRDNSKNTLYLQMNSLRAEDTAVYYCAKHYFYGGSYAMDYWGQGTLVTVSS
VL: DIQMTQSPSSLSASVGDRVTITCRASQDISKYLNWYQQKPGKAPKLLIYHTSRLHSGVPSRFSGSGSGTDFTLTISSLQPEDFATYYCQQGATLPYTFGPGTKVDIKR
notes: as for B2
B13: VH16-L78V/VL43-F71Y (antibody, human IgG1, name in Kabat numbering, V domains shown)
VH: QVQLVQSGGGVVQPGRSLRLSCAASGVSLPDYGVSWVRQAPGKGLEWVAVIWGSETTYYNSALKSRFTISRDNSKNTVYLQMNSLRAEDTAVYYCARHYYYGGSYAMDYWGQGTLVTVSS
VL: DIVMTQTPSSLSASVGDRVTITCRASQDISKYLNWYQQKPGKAPKLLIYHTSRLHSGVPSRFSGSGSGTDYTLTISSLQPEDFATYYCQQGNTLPYTFGPGTKVDIKR
notes: as for B2
B14: VH16 R94K Y97F VL43 (antibody, human IgG1, name in Kabat numbering, V domains shown)
VH: QVQLVQSGGGVVQPGRSLRLSCAASGVSLPDYGVSWVRQAPGKGLEWVAVIWGSETTYYNSALKSRFTISRDNSKNTLYLQMNSLRAEDTAVYYCAKHYFYGGSYAMDYWGQGTLVTVSS
VL: DIVMTQTPSSLSASVGDRVTITCRASQDISKYLNWYQQKPGKAPKLLIYHTSRLHSGVPSRFSGSGSGTDFTLTISSLQPEDFATYYCQQGNTLPYTFGPGTKVDIKR
notes: as for B2
B15: VH16/VL43-F71Y (antibody, human IgG1, V domains shown)
VH: QVQLVQSGGGVVQPGRSLRLSCAASGVSLPDYGVSWVRQAPGKGLEWVAVIWGSETTYYNSALKSRFTISRDNSKNTLYLQMNSLRAEDTAVYYCARHYYYGGSYAMDYWGQGTLVTVSS
VL: DIVMTQTPSSLSASVGDRVTITCRASQDISKYLNWYQQKPGKAPKLLIYHTSRLHSGVPSRFSGSGSGTDYTLTISSLQPEDFATYYCQQGNTLPYTFGPGTKVDIKR
notes: as for B2
B16: VH16 Y32F/R94K/VL43 V3Q/T7S/N92A (antibody, human IgG1, name in Kabat numbering, V domains shown)
VH: QVQLVQSGGGVVQPGRSLRLSCAASGVSLPDFGVSWVRQAPGKGLEWVAVIWGSETTYYNSALKSRFTISRDNSKNTLYLQMNSLRAEDTAVYYCAKHYYYGGSYAMDYWGQGTLVTVSS
VL: DIQMTQSPSSLSASVGDRVTITCRASQDISKYLNWYQQKPGKAPKLLIYHTSRLHSGVPSRFSGSGSGTDFTLTISSLQPEDFATYYCQQGATLPYTFGPGTKVDIKR
notes: as for B2
B17: VH16-R71K/VL43-Y87F (antibody, human IgG1, name in Kabat numbering, V domains shown)
VH: QVQLVQSGGGVVQPGRSLRLSCAASGVSLPDYGVSWVRQAPGKGLEWVAVIWGSETTYYNSALKSRFTISKDNSKNTLYLQMNSLRAEDTAVYYCARHYYYGGSYAMDYWGQGTLVTVSS
VL: DIVMTQTPSSLSASVGDRVTITCRASQDISKYLNWYQQKPGKAPKLLIYHTSRLHSGVPSRFSGSGSGTDFTLTISSLQPEDFATYFCQQGNTLPYTFGPGTKVDIKR
notes: as for B2
B18: VH16-L78V/VL43-Y87F (antibody, human IgG1, name in Kabat numbering, V domains shown)
VH: QVQLVQSGGGVVQPGRSLRLSCAASGVSLPDYGVSWVRQAPGKGLEWVAVIWGSETTYYNSALKSRFTISRDNSKNTVYLQMNSLRAEDTAVYYCARHYYYGGSYAMDYWGQGTLVTVSS
VL: DIVMTQTPSSLSASVGDRVTITCRASQDISKYLNWYQQKPGKAPKLLIYHTSRLHSGVPSRFSGSGSGTDFTLTISSLQPEDFATYFCQQGNTLPYTFGPGTKVDIKR
notes: as for B2

For the experiment, the target named is T1, human CD19. Kind of experiment: flow cytometry, Raji cells, MPF vs chimeric FMC63. Here is the method: Binding of the CD19 humanized monoclonal antibodies by flow cytometry to Raji tumor cells (human Burkitt lymphoma, DSMZ ACC319), NALM-6 (human B cell precursor leukemia, DSMZ ACC128) and SU-DHL-6 (human B cell lymphoma, DSMZ ACC572) (all cell lines from DSMZ Braunschweig, Deutschland) was assessed. Cells were incubated with serial dilutions of each humanized monoclonal antibody. An irrelevant human IgG1 was used as a negative control. The cells were washed and detected by a phycoerythrin-labeled (PE) anti-human secondary antibody (eBioscience, CA, USA) and analyzed by flow cytometry. […] From MFI versus antibody concentration curves, Mid-Point Fluorescence (MPF) value for each anti-CD19 humanized antibody was calculated using the software GraphPad Prism 5 (CA, USA).
(Flow cytometry measures light scatter and fluorescence of single cells or particles in a stream.)
Regarding B1, the “relative MPF (% of chimeric FMC63)” value amounted to 111%.

As for B2, the “relative MPF (% of chimeric FMC63)” value came to 6.93%.

As for B3, the “relative MPF (% of chimeric FMC63)” value came to 62.5%.

For B4, the “relative MPF (% of chimeric FMC63)” value was determined as 4.43%.

Consider B5, for which the “relative MPF (% of chimeric FMC63)” value was determined as 6.54%.

For B6, the “relative MPF (% of chimeric FMC63)” value stood at 10.8%.

B7: the binding result is “binds”.

Consider B8, for which the “relative MPF (% of chimeric FMC63)” value came out at 34.1%.

With B9, the “relative MPF (% of chimeric FMC63)” value is 8.33%.

As to B10, the “relative MPF (% of chimeric FMC63)” value is 4.35%.

Consider B11, for which the “relative MPF (% of chimeric FMC63)” value was determined as 5.36%.

For the molecule B12, the binding result is listed as “binds”.

Consider B13, for which the “relative MPF (% of chimeric FMC63)” value worked out at 12.3%.

As for B14, the “relative MPF (% of chimeric FMC63)” value turned out to be 72.8%.

As to B15, the “relative MPF (% of chimeric FMC63)” value was determined as 11.3%.

Take B16: the “relative MPF (% of chimeric FMC63)” value was 58.8%.

On to B17, for which the “relative MPF (% of chimeric FMC63)” value came out at 4.19%.

As to B18, the “relative MPF (% of chimeric FMC63)” value came to 17.9%.
